Results: publication PMC6756068, “The NF2 tumor suppressor merlin interacts with Ras and RasGAP, which may modulate Ras signaling” (Oncogene, 2019)

Target: T1, full-length (FL) RasGAP purified from E. coli (UniProt P20936 1-1047)
T1 construct: p120RasGAP (RASA1), full length; also called purified FL RasGAP; source: E. coli, purified
T1 sequence (looked up): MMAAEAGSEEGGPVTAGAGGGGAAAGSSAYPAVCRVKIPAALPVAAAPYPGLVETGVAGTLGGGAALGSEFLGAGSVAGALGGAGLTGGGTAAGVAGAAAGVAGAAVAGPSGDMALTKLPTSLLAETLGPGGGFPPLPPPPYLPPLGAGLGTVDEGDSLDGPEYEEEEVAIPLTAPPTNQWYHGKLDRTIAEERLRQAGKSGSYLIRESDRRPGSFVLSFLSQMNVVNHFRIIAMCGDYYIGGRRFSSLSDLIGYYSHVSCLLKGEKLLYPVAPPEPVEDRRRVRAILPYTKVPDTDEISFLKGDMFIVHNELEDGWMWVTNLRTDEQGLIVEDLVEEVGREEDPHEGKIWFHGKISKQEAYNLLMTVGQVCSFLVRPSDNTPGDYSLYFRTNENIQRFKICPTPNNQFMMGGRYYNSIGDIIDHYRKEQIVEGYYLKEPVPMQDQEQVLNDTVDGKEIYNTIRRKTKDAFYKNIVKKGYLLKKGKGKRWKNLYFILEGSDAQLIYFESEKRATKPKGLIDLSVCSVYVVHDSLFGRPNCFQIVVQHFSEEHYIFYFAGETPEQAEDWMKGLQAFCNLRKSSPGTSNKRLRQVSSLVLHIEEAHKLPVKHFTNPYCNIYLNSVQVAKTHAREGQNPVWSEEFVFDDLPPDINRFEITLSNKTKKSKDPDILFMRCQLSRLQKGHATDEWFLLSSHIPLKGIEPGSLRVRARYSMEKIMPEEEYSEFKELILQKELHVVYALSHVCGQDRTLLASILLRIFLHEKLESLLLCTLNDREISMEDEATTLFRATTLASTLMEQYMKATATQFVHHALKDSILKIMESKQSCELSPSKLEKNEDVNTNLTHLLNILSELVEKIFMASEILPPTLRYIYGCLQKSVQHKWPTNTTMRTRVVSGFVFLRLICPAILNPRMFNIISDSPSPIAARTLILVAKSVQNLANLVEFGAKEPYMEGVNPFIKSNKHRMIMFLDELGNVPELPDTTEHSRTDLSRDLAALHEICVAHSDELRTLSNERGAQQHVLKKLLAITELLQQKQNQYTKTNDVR
Assay: pull-down; GST-merlin fragments pull down FL RasGAP purified from E. coli; western blot
Settings: both partners purified

binding result: binds
B1: GST-merlin aa 1–73 (domain or fragment, UniProt P35240 1-73, looked up)
chain: MAGAIASRMSFSSLKRKQPKTFTVRIVTMDAEMEFNCEMKWKGKDLFDLVCRTLGLRETWFFGLQYTIKDTVA
notes: merlin (NF2), part of the F1 subdomain of the FERM domain, aa 1-73; also called aa 1–73 fragment; part of merlin's F1 subdomain
